From article PMC3814058 (Bioscience Reports, 2013)
No end group written: not given here.

Target: the molecule itself
Test: non-reducing SDS/PAGE; overnight dialysis at 4°C against non-reducing (DTT-free) HK buffer, non-reducing sample buffer, 65°C 5 min, Coomassie stain; disulphide-linked dimer

B1: GFP–STIM1K+LC (GFP–STIM1K with a leucine and cysteine insertion after residue 666), oxidized dimer (domain or fragment, human, UniProt Q13586-1 662-685, looked up)
chain: GEETDLCSSPGRKKFPLKIFKKPLKK
modifications: not fully specified; inserted cysteine oxidized (84% dimerization)
notes: STIM1, human, residues 662–685 with Leu and Cys inserted after Asp666; The methods describe only the plasmid of the +LC–P675A–P682A form (pMS781); also called GFP–STIM1K dimer; oxidized GFP–STIM1K+LC; source: E. coli BL21 (DE3), purified, dialysed overnight against DTT-free HK buffer; not shown: GFP, N-terminal, kept
stoichiometry N: 2

B2: GFP–STIM1K+LC–P675A–P682A, oxidized dimer (domain or fragment, human, UniProt Q13586-1 662-685, looked up)
chain: {GFP}-GEETDLCSSPGRKKFALKIFKKALKK
modifications: also: disulfide-linked dimer via inserted cysteine
notes: STIM1, human, residues 662–685 with Leu and Cys inserted after Asp666, P675A and P682A; also called pMS781; GFP-STIM1K dimer with both prolines mutated; source: E. coli BL21 (DE3), purified, dialysed overnight against DTT-free HK buffer; not shown: GFP, N-terminal, kept
stoichiometry N: 2
